Experimental data taken from patent US20160031978.

Target: Δ144-273 tau (full-length tau with deletion of amino acids 144-273) (UniProt P10636)
Sequence (P10636 whole entry, looked up, stated change not applied, the tested form may be a part): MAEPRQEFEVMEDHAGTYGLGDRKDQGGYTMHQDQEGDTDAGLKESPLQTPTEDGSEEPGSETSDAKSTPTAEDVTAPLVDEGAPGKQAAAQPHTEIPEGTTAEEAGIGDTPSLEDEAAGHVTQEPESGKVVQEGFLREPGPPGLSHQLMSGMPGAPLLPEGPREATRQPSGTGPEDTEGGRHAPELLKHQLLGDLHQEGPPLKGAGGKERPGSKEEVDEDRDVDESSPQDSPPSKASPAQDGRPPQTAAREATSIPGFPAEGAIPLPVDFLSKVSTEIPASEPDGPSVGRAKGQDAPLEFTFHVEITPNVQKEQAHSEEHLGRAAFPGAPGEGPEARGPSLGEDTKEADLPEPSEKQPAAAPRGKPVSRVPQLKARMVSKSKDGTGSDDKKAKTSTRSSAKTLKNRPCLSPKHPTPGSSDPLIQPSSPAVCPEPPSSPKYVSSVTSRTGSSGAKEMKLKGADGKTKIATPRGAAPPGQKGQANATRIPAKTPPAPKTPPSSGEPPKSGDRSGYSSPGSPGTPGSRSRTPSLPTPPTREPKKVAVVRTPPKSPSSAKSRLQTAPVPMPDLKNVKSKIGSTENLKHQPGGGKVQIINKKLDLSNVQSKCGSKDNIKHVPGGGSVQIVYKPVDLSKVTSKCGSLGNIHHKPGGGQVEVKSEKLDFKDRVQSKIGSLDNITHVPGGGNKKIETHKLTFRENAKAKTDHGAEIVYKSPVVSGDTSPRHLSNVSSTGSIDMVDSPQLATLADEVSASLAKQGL

## active fyn kinase
  in vitro phosphorylation at Tyr18 (9G3/R1 immunoblot ratio): When compared to wild-type tau, AT8 tau and A144-273 tau had a slower rate and lower maximal level of phosphorylation at Tyr18
